# From PMC6015067
# Key:
# [1] = target: His-tagged full-length Ajuba (UniProt Q96IF1); assay: pull-down; His-tag pull-down on Ni-NTA beads of proteins co-translated in one rabbit reticulocyte lysate reaction with 35S-methionine; beads blocked with 2% BSA, 30 minutes at room temperature, TBST pH 8.0, six washes; autoradiography, signal normalized to input and number of methionines
# [2] = target: LIM protein Ajuba (human (endogenous in HTC75)) (UniProt Q96IF1); assay: co-IP; IP-Western of endogenous proteins from HTC75 total extracts (also IMR90) with Ajuba serum or antibodies to RPA70, RPA32 or RPA14; cells untreated, treated with 2 mM hydroxyurea for 24 hr (association reduced) or synchronized by double thymidine block and released for 2 hr (no perceptible effect)
# Sequence of RPA70-OB½ABC (P27694 234-612): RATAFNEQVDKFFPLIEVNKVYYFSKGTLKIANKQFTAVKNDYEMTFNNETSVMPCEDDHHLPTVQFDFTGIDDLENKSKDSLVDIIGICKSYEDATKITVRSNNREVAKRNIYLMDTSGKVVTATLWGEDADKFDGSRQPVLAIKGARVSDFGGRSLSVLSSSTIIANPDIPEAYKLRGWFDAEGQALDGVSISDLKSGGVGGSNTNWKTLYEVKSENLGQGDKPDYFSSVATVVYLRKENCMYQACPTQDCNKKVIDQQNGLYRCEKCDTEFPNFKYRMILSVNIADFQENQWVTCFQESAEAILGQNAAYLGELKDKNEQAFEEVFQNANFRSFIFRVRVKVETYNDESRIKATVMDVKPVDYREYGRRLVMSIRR
pull down relative to full-length RPA70 (set at 100%) [1],pull down efficiency (% of total RPA in association with Ajuba) [2],Substance
58.7%,–,RPA70-OB½ABC (from UniProt P27694 234-612) (domain or fragment)
–,2 to 5%,total RPA
